# Laboratory results: paper PMC7348807
# Columns and labels:
# [1] = target: T1, thrombin (UniProt P00734;P00734 328-363;364-622); experiment: kinetic exclusion assay (KinExA), n-curve analysis; 1:1 model; FA 10 pM, 50 pM, 1 nM; fitted FA activity ~47%; 1:1 fit deviates at high thrombin; PBS with 0.02% sodium azide and 1 mg/mL BSA; incubation 2 h (50 pM, 1 nM FA) or 6.5 h (10 pM FA); thrombin 5 pM to 1 uM; pH and temperature not stated
# [2] = target: T1, thrombin; experiment: kinetic exclusion assay (KinExA), two-population competitive fit; hypothetical second FA population (16%); the other 84% fixed at Kd 298 pM; PBS with 0.02% sodium azide and 1 mg/mL BSA; incubation 2 h (50 pM, 1 nM FA) or 6.5 h (10 pM FA); thrombin 5 pM to 1 uM; pH and temperature not stated
binder,measurement,setting,value
"AGTCCGTGGTAGGGCAGGTTGGGGTGACT (structured_DNA) [29-nt thrombin aptamer (Tasset et al.), fluorescent aptamer FA]",Kd,[1],0.298 nM
same,Kd,[2],500 nM
